Experimental findings from article doi:10.1101/2025.08.16.670655, “A Phosphorelay Circuit Drives Extracellular Alkalinization in Plant Receptor Kinase Signaling” (bioRxiv, 2025) are described below.

The assay deals with T1, His-BIK1 (Arabidopsis thaliana, UniProt O48814 1-395).
T1 construct: BIK1, Arabidopsis; CDS cloned into pET28a, 6xHis fusion; source: E. coli BL21 (DE3) Rosetta pLysS, purified (HisPur cobalt resin); not shown: His6, N-terminal, kept
T1 sequence (looked up): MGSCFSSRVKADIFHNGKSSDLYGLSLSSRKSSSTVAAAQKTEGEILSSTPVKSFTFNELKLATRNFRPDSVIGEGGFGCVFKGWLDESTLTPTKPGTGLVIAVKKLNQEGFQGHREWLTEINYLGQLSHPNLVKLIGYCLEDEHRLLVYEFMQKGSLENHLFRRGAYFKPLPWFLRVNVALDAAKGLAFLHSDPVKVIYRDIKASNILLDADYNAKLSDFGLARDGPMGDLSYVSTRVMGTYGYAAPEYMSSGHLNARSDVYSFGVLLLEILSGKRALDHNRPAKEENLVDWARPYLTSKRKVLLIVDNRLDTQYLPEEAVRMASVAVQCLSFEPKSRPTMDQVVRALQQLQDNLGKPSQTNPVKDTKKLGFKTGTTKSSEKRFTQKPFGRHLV
In words: pull-down; MBP pulldown of His-BIK1 by His-MBP fusion proteins; 25 mM Tris-HCl pH 7.4, 100 mM NaCl, 0.2 % Triton X-100, 1 mM DTT, 4 °C, 1-2 h. The settings on record: both partners purified.

B1: His-MBP-GRF2 (natural protein, Arabidopsis thaliana, UniProt Q01525 1-259, looked up)
chain: MASGREEFVYMAKLAEQAERYEEMVEFMEKVSAAVDGDELTVEERNLLSVAYKNVIGARRASWRIISSIEQKEESRGNDDHVTAIREYRSKIETELSGICDGILKLLDSRLIPAAASGDSKVFYLKMKGDYHRYLAEFKTGQERKDAAEHTLAAYKSAQDIANAELAPTHPIRLGLALNFSVFYYEILNSPDRACNLAKQAFDEAIAELDTLGEESYKDSTLIMQLLRDNLTLWTSDMQDDAADEIKEAAAPKPTEEQQ
notes: GRF2, Arabidopsis; CDS cloned into pOPINM, 6xHis-MBP fusion; source: E. coli BL21 (DE3) Rosetta pLysS, purified (HisPur cobalt resin); not shown: His6, N-terminal, kept; MBP, N-terminal, kept
Take B1: the binding result was “binds”.
